In patent US20230050972A1 (MOMENTA PHARMACEUTICALS, published 2023):
Where “and” joins values, the source holds several entries; their conditions need not be identical. Identical values can stand only once.

T1: in-house generated I domain of α11β1 (human, UniProt Q9UKX5 159-349, limits assumed)
T1 construct: domain: I domain; also called human α11β1 I domain; α11β1 I Domain
T1 sequence (looked up): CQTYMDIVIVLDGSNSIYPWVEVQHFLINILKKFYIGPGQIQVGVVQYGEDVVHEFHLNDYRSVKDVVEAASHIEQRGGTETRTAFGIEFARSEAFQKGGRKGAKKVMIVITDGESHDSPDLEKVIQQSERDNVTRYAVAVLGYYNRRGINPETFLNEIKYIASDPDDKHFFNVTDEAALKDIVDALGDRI


How the values were obtained:
[1] = molecular target: T1, in-house generated I domain of α11β1; test: binding to isolated I domain
recombinant mouse α11β1 [2] = molecular target: T2, recombinant mouse α11β1 (mouse, UniProt P61622 23-1141; P09055 21-728, limits assumed); test: ELISA on recombinant mouse α11β1
T2 construct: also called murine α11β1
Procedure: (§1) 0.25 μg/mL of target antigen (recombinant human or mouse α11β1) was plated in a 96-well plate over night at 4° C. Plates were washed (PBS with 0.1% Tween-20), blocked (PBS with 2% BSA and 0.05% Tween-20) for 1 hour at room temperature and incubated with a range of antibody concentrations for 1 hour at room temperature. Subsequently, plates were washed and incubated with biotinylated anti-rabbit/mouse/human IgG in a 1:1000 dilution buffer and incubated for 1 hour at room temperature. After washing the plates, Streptavidin HRP was added at 1:200 in dilution buffer and incubated for 1 hour at room temperature. Ultra TMB ELISA substrate solution was added and the plates incubated for 5 minutes on a plate shaker. The reaction was stopped by adding stop solution to each well and plates were read at 450 nm.

recombinant human α11β1 [3] = molecular target: T3, recombinant human α11β1 (human, UniProt Q9UKX5 23-1141; P05556 21-728); test: ELISA on recombinant human α11β1
T3 construct: Coated in ELISA; ELISA and SPR material treated as one molecule; also called HIS-tagged human α11β1; integrin alpha 11 beta 1
Procedure: as §1

[4] = molecular target: T4, α11β1 on human myofibroblasts (MF) (human, UniProt Q9UKX5 23-1188; P05556 21-798); test: FACS on human myofibroblasts
T4 construct: whole, on cells
Procedure: Human Pulmonary Fibroblasts (ScienCell) were cultured in complete Fibroblast Growth Medium (ScienCell) until 80% confluent in T-150 flasks. Cells were washed and harvested using Accutase. Cells were seeded into T-150 flasks at 7,500 cells/cm² in complete FGF and cultured for 72 hours. Cells were then washed and starved in serum reduced medium for 24 hours. After starvation, cells were treated with TGFβ-1 (R&D Systems) for 72 hours. Cells were harvested using Accutase and seeded in 96-well conical bottom plates. Cells were blocked with Heat Inactived Fetal Bovine Serum (Gibco) for 30 minutes at 4° C. Cells were then incubated with anti-α11 antibodies at the doses described in each figure for 30 minutes at 4° C. A human anti-α11 antibody (Creative BioLabs) was included as a positive control as well as the appropriate IgG isotype negative controls. Cells were washed twice and incubated with PE conjugated secondary antibodies specific to the IgG class of the anti-α11 antibodies being tested for 30 minutes at 4° C. Cells were washed twice and fixed in 1% PFA for 30 minutes. Cells were acquired on a FACS Verse […]. Data were analyzed by gating on single cells and determining the geometric Mean Fluorescence Intensity (gMFI) in the PE channel for each sample.

recombinant mouse α11β1 [5] = molecular target: T2, recombinant mouse α11β1; test: ELISA, plate coated with recombinant mouse α11β1
Procedure: as §1

recombinant human α11β1 [6] = molecular target: T3, recombinant human α11β1; test: ELISA, plate coated with recombinant human α11β1
Procedure: as §1

[7] = molecular target: human α11β1 expressed on the surface of CHO-K1 cells (human, UniProt Q9UKX5 23-1188); test: FACS on CHO-K1 hu α11β1 cells, estimated EC50
Procedure: 200,000 cells (wild-type CHO-K1 cells or CHO-K1 cells expressing human α11) were incubated with each antibody at desired concentrations in FACS buffer for 30 min at 4° C. Then, the cells were washed with FACS buffer and incubated with secondary antibody at 1:100 dilution for 30 minutes at 4° C. Cells were then washed and fixed with 1% PFA in PBS for 20 minutes at room temperature; washed again and read on a cytometer in FACS buffer.
Binding EC₅₀ was estimated using data from Fluorescence-activated cell sorting (FACS) performed with CHO-K1 hu α11β1 cells. Four out of six mAbs tested had EC₅₀ results in the low nanomolar range (8-P20, 8-G15, 8-J17, 8-l14), while the remaining two mAbs were not as potent (9-G05 and 9-E16; both I domain binders).

T4 sequence (Q9UKX5 23-1188, chain 1 of 2): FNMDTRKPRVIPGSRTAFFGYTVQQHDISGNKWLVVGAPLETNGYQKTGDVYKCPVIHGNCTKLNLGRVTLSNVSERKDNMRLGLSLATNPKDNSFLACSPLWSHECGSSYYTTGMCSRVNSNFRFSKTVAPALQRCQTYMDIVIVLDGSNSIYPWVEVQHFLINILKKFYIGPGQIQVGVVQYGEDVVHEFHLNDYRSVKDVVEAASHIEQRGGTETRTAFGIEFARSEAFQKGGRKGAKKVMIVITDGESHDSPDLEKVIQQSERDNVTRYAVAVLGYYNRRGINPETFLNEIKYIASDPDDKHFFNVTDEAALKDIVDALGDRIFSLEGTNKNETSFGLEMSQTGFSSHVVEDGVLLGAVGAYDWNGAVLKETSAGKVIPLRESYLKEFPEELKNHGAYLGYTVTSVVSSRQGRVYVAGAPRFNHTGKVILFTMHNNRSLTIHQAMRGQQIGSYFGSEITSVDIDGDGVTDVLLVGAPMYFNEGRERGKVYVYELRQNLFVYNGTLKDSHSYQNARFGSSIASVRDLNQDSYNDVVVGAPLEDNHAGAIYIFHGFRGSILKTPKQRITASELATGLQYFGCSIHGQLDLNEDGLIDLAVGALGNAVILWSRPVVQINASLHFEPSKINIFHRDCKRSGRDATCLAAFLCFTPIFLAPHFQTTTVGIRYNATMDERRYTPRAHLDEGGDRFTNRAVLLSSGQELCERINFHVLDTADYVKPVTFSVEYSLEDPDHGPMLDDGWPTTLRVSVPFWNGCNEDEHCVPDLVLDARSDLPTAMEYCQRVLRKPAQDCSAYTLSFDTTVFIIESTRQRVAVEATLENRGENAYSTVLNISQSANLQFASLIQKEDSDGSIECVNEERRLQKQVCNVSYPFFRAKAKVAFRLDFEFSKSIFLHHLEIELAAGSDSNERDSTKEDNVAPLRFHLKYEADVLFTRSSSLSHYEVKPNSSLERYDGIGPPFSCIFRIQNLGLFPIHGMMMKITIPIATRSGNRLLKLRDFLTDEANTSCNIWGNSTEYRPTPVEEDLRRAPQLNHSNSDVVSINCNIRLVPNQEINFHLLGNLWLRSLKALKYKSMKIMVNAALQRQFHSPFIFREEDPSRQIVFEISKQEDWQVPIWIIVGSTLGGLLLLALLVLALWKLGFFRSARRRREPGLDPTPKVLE
T4 sequence (P05556 21-798, chain 2 of 2): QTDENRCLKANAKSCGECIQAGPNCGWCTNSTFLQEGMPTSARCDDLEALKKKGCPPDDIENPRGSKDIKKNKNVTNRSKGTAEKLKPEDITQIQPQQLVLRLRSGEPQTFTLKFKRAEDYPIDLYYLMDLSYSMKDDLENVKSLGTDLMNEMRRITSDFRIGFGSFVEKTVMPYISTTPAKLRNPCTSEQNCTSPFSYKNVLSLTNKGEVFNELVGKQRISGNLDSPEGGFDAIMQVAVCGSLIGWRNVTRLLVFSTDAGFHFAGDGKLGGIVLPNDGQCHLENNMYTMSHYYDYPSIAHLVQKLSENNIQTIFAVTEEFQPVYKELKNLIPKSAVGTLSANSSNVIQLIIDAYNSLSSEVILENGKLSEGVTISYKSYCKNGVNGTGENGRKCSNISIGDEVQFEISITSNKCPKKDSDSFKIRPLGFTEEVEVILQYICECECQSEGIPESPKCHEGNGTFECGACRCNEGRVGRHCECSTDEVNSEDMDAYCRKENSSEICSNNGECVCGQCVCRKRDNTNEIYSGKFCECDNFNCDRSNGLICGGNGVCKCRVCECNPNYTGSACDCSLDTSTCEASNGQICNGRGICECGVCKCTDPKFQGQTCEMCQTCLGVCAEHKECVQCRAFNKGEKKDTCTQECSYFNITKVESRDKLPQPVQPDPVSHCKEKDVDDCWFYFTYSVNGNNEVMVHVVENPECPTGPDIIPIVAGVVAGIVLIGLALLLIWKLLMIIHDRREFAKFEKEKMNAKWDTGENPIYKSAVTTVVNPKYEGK
T3 sequence (Q9UKX5 23-1141 limits assumed, chain 1 of 2): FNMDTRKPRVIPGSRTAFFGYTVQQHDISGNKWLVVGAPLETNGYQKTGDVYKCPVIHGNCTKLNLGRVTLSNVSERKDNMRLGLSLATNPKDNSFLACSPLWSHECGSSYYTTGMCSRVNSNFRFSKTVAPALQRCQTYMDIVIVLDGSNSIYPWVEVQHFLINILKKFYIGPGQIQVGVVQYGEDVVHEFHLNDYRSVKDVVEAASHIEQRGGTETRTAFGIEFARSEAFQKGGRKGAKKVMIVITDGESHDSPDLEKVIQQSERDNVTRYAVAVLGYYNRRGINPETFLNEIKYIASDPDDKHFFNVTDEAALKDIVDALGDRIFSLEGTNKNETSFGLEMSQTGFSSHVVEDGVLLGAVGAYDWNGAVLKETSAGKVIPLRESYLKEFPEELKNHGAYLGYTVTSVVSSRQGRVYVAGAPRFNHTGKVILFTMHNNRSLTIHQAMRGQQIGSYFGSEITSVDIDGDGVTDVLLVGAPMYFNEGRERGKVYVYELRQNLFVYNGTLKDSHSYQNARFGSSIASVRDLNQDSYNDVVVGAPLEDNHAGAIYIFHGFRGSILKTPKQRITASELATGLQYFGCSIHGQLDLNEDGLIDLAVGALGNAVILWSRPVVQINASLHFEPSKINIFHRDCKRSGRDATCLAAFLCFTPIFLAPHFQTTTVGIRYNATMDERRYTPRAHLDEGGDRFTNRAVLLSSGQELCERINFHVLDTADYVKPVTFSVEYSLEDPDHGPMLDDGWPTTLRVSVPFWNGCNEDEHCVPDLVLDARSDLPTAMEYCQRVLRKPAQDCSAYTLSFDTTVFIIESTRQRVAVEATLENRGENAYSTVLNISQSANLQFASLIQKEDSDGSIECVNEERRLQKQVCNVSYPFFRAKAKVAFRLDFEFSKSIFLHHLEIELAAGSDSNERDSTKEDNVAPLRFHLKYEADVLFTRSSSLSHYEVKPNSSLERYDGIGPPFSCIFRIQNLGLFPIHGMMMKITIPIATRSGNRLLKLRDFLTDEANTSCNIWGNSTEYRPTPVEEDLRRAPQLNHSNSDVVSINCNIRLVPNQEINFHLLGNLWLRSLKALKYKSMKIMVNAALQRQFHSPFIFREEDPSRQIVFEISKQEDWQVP
T3 sequence (P05556 21-728 limits assumed, chain 2 of 2): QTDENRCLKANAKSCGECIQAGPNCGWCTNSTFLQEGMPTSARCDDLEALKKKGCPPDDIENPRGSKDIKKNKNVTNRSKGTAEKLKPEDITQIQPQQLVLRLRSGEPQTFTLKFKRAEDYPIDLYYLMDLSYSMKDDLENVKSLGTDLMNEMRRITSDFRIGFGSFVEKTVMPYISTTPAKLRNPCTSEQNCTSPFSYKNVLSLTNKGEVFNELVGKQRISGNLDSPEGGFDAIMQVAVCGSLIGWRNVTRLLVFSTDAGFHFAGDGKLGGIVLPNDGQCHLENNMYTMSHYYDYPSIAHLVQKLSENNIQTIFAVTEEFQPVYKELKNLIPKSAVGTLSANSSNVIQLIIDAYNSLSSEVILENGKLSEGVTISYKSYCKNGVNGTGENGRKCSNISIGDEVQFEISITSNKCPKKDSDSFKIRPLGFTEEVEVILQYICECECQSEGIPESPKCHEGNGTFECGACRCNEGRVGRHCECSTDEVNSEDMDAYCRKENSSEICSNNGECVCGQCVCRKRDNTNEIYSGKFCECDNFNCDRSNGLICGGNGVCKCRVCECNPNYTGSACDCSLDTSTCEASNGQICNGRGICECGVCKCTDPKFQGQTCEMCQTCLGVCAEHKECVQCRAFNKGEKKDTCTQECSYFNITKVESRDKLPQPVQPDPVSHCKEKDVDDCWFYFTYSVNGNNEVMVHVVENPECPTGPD
Chain of human α11β1 expressed on the surface of CHO-K1 cells (Q9UKX5 23-1188): as the sequence (Q9UKX5 23-1188, chain 1 of 2) above

Row | Binder | binding result [1] | binding result (recombinant mouse α11β1 [2]) | binding result (recombinant human α11β1 [3]) | binding result [4] | EC50 (read off the curve) (recombinant mouse α11β1 [5]) [ng/mL] | EC50 (read off the curve) (recombinant human α11β1 [6]) [ng/mL] | EC50 [7]
1 | A11B1_5D7 (antibody, V domains shown, recombinant rabbit IgG, full chains) VH: QEQLVESGGGLVQPEGSLTLTCKASGFDFSSNAMCWVRQAPGKGLEWIACIYNGDGSTYYASWVNGRFTISKTSSTTVTLQMTSLTAADTATYFCARGLSNWNRDNLWGPGTLVTVSS VL: AQVLTQTPSSVSAAVGGTATINCQASQSLYSPKNLAWYQQTPGQPPKLLIYSASKLASGVPSRFKGSGSGTQFTLTISGVQCDDAAIYYCQGEFSCTTAACFAFGGGTEVVVKG | no binding | no binding | binds | binds | – | – | –
2 | 7D8B10 (antibody, V domains shown, rat hybridoma mAb) VH: EVKLEESGGGLVQPGMSVKLSCATSGFIFSDYWMEWVRQAPGKGLEWVAEIRNKANNYATYYGKSMKGRFTISRDDSKSIVYLQVNSIRSEDTAIYYCAPNFDYWGQGVMVTVSS VL: DVVLTQTPPTLSATIGQSVSISCRSSQSLLHSTGNTYLNWLLQRPGQPPQLLIYLVSRLESGVPNRFSASGSGTDFTLKISGIEAEDLGVYYCVQSSHTPYTFGTGTKLELK | no binding | no binding | binds | binds | – | – | –
3 | A11B1_6F9 (antibody, V domains shown, recombinant rabbit IgG, full chains) VH: QSLEESGGDLVKPGASLTLTCTASGSSFSSTYWNCWVRQAPGKGLEWIACINAGSGTTYYASWAKGRFTVSKTSSTTVTLQMTSLTAADTATYFCTRDSDGRFSSGYYFNLWGPGTLVTVSS VL: AQVLTQTASPVSAAVGGTVTINCQSSQSVYDNNWLAWYQQKPGQPPKLLIDDASKLTSGVSSRFKGSGSGTQFTLTISGVQCDDAATYYCQGAYYSSGWYWAFGGGTEVVVKG | no binding | no binding | binds | binds | – | – | –
4 | A11B1_6C7 (antibody, V domains shown, recombinant rabbit IgG, full chains) VH: QQQLEESGGGLVKPGGTLTLTCKASGIDFSSYYYMCWVRQAPGKGLELIVCIYTSSGGTWYASWVNGRLTISRSTSLNTVDLKMTSLTAADTATYFCARGVYSGSSDYPTRLDLWGQGTLVTVSL VL: AIEMTQSPPSLSASVGETVRIRCLASEDIYSGISWYQQKPEKPPTLLISGASNLESGVPPRFSGGGSGTDYTLTIGGVQAEDVATYYCLGGYSFSSTGLTFGAGTKVEIKR | no binding | no binding | binds | binds | – | – | –
5 | A11B1_16G7 (antibody, V domains shown, recombinant rabbit IgG, full chains) VH: QEQLVESGGDLVKPGASLTLTCTASGFSFNKNYWMCWVRQAPGKGLEWIGCIYNGDGNTYYASWVNGRFTISKTSSTTVTLQMTSLTVADTAIYFCARLLNMWGPGTLVTVSS VL: DIVMTQTPASVEAAVGGTVTIKCQASESIGNALAWYQQKPGQPPKLLIYTAATLASGVPSRFSGSGSGTEFTLTISGVQCDDAATYYCQSYYFTSVSSYGNAFGGGTEVVVKG | no binding | binds | binds | binds | – | – | –
6 | A11B1_4E1 (antibody, V domains shown, recombinant rabbit IgG, full chains) VH: QSLEESGGDLVKPGTSLTLSCTASGFSFGSYYYMCWVRQAPGKGLEWIACIDVGSSGDTYYASWVNGRFTISKTSSTTVTLQMTSLTAADTATYFCARDDTAAGGFGNLELWGPGTLVTVSS VL: AFELTQTPSSVSEPVGGTVTIKCQASQSIYSYFSWYQQKPGQPPKRLIYQASTLASGVPSRFKGSGSGTDFTLTISDLECADAATYYCQNNYGRGSGSYFFGFGGGTEVVVKG | no binding | no binding | binds | binds | – | – | –
7 | A11B1_5A7 (antibody, V domains shown, recombinant rabbit IgG, full chains) VH: QSLEESGGGLVQPEGSLTLACTASGFSFSSYYYICWVRQAPGTGLEWIGCINTGSDDTHYASWLKGRFTFSKASSTTLTLQMTSLTAADTATYFCARSSGSSDDAYDLWGPGTLVTVSS VL: DVVMTQTPASVSEPVGGAVTIKCQASQSIGSNLAWYQHKPGQPPKLLIYFASSLASGVSSRFKGGRSGTQFTLTISDLECADAATYYCHCTYYPLSYVTFGGGTEVVVKG | no binding | no binding | binds | binds | – | – | –
8 | 9-E16 (antibody, V domains shown, mouse hybridoma IgG) VH: EVQLQQSGPELVKPGASVKISCKASGYTFTDYYMHWVKQKPGQGLEWIGEIYPGSGNPYYNEKFKGKATLTADKSSSSAYMQLSSLTSEDSAVYFCARTSYGRVGTGFAYWGQGTLVTVSA VL: NFVMTQTPLSLPVSLGDQASISCRSSQSLLHSNGNTYLHWYLQKPGQSPKLLIYKVSNRFSGVPDRFSGSGSGTDFTLKINRVETEDLGIYFCSQSSHVPTFGAGTKLELK | – | – | – | – | ~6 | ~1 | 42.8 µg/mL and 285 nM

Now from value to binder:

Row | binding result [1] | binding result (recombinant mouse α11β1 [2]) | binding result (recombinant human α11β1 [3]) | binding result [4] | EC50 (read off the curve) (recombinant mouse α11β1 [5]) [ng/mL] | EC50 (read off the curve) (recombinant human α11β1 [6]) [ng/mL] | EC50 [7] | Binder
9 | no binding | no binding | binds | binds | – | – | – | A11B1_3B1 (antibody, V domains shown, recombinant rabbit IgG, full chains) VH: QEQLEESGGGLVKPEGSLTLTCKASGFDLSSGYDMCWVRQAPGKGLEWIACIYADYSGSTYYASWVNGRFTISSSTSLNTVDLKMTSLTAADTATYFCARGATGNGGYGYYFNLWGPGTLVTVSS VL: DIVMTQTPASVSEPVGGTVTIKCQASQNINSGLAWYQQKPGQPPKLLIYKASTLASGVSSRFKGSGSGTEFTLTISDLECADAATYYCQTYYYSSSSSDNAFGGGTEVVVKG
10 | no binding | no binding | binds | binds | – | – | – | A11B1_6G4 (antibody, V domains shown, recombinant rabbit IgG, full chains) VH: QQQLEESGGGLVKPGGTLTLTCKASGVALNPYYYMCWVRQAPGKGLEWIACVDADSSGSTYYASWAKGRFTISKTSSTTVTLKMTSLTAADTATYFCARESVDYSSVGIGYVHGTDGLWGPGTLVTVSS VL: DIVVTQTPSSVSAAVGGTVTIKCQASQSISNYFSWYQQKPGQPPKLLIYRASTLASGVPSRFKGSGSGTEFTLTISDLECADAATYYCQCTYGRSNSNFFYGFGGGTEVVVKG
11 | no binding | binds | binds | binds | – | – | – | 7-H14 (antibody, V domains shown, mouse hybridoma IgG) VH: QVQLQQPGAELVRPGASVKLSCKPSGYTFTSYWMNWVKQRPGQGLEWIGMIDPSDSETHYNQMFKDKATLTVDKSSNTAYMQLSSLTSEDSAVYYCAQIYYAYDKAYWGQGTLVTVSA VL: DIVMSQSPSSLAVSVGEKVTMSCKSSQSLLYSSHQKNYLAWYQQKPGQSPKLLIYWASTRESGVPDRFTGSGSGTDFSLTISSVKAEDLAVYYCQEYYSWTFGGGTKLEIK
12 | no binding | binds | binds | binds | – | – | – | 6-O17 (antibody, V domains shown, mouse hybridoma IgG) VH: QVQLQQPGAELVKPGASVKLSCKASGYTFTSYWMHWIKQRPGQGLEWIGEINPSNGGSNYNEKFKSKATLTVDKSSSTAYMQLSSLTSEDSAVYHCKSRGYWGQGTTLTVSS VL: not shown
